Results from publication PMC8786652 (Cell reports, 2022).

How the values were obtained:
[1] = target: SARS-CoV-2 Spike on CEM.NKr-Spike cells (SARS-CoV-2, Wuhan-Hu-1 (assumed for the …, UniProt P0DTC2)); test: flow cytometry on cells
[2] = target: SARS-CoV-2 Spike WT (Wuhan-Hu-1 reference strain) (SARS-CoV-2, Wuhan-Hu-1, UniProt P0DTC2); test: flow cytometry on cells
[3] = target: SARS-CoV-2 S1 domain C-His tag protein, from HEK293 cells (SARS-CoV-2, Wuhan-Hu-1 (strain not …, UniProt P0DTC2)); test: SPR

B1: CV3-13 (hIgG1) (antibody, V domains shown)
VH: QVQLQQSGPGLVKPSQTLSLTCTVAGGSISSGTYYWSWIRQPAGKGLEWIGRIYTSGSANYNPSLKSRVTISVDTSKNQFSLRLSSVTAEDTAVYYCAREYSSSYYYFYYMDVWGKGTTVTVSS
VL: AIRMTQSPSSLSASVGDRVTITCQASQDISNYLNWYQQKPGKAPKLLIYVASNLETGVPSRFSGSGFGTDFTFTISSLQPEDIATYYCQQFDNLPYTFGQGTKLEIK
binding result [1]: binds | binding result [2]: binds | binding result [3]: binds

B2: CV3-13 LALA (hIgG1) (antibody, V domains shown)
VH: B1 VH
VL: B1 VL
binding result [1]: binds | binding result [2]: binds

B3: CV3-13 […] (hIgG1) (antibody, V domains shown)
VH: B1 VH
VL: B1 VL
binding result [1]: binds | binding result [2]: binds
